Target: GST-LC3B (UniProt Q9GZQ8 1-120)
Test: pull-down

binding result: binds
B1: MBP-FYCO1(863–1,478) (domain or fragment)
chain: AQQREEELRALQEELSQAKCSSEEAQLEHAELQEQLHRANTDTAELGIQVCALTVEKERVEEALACAVQELQDAKEAASREREGLERQVAGLQQEKESLQEKLKAAKAAAGSLPGLQAQLAQAEQRAQSLQEAAHQELNTLKFQLSAEIMDYQSRLKNAGEECKSLRGQLEEQGRQLQAAEEAVEKLKATQADMGEKLSCTSNHLAECQAAMLRKDKEGAALREDLERTQKELEKATTKIQEYYNKLCQEVTNRERNDQKMLADLDDLNRTKKYLEERLIELLRDKDALWQKSDALEFQQKLSAEERWLGDTEANHCLDCKREFSWMVRRHHCRICGRIFCYYCCNNYVLSKHGGKKERCCRACFQKLSEGPGSPDSSGSGTSQGEPSPALSPASPGPQATGGQGANTDYRPPDDAVFDIITDEELCQIQESGSSLPETPTETDSLDPNAAEQDTTSTSLTPEDTEDMPVGQDSEICLLKSGELMIKVPLTVDEIASFGEGSRELFVRSSTYSLIPITVAEAGLTISWVFSSDPKSISFSVVFQEAEDTPLDQCKVLIPTTRCNSHKENIQGQLKVRTPGIYMLIFDNTFSRFVSKKVFYHLTVDRPVIYDGSDFL
